In US20110256062A1 (MEDICAL RESEARCH COUNCIL, published 2011):
One block for each molecule: values may come before it.

Columns and labels:
[1] = biological target: wild type full-length GFP-LRRK2 (human) (UniProt Q5S007); experiment: SILAC mass spectrometry of GFP-binder immunoprecipitates from HEK-293 lysates; range told of the group of isoforms
[2] = biological target: full-length GFP-LRRK2[G2019S] mutant (human) (UniProt Q5S007); experiment: as above
[3] = biological target: T1, full length human FLAG-LRRK2 (wild type) (human, UniProt Q5S007 1-2527, phosphoserine at 860, 910, 935, 955, 973 and 976 (mass spectrometry)); experiment: glutathione-Sepharose affinity purification of GST tagged 14-3-3 isoforms from HEK-293 cells expressing FLAG-LRRK2, anti-FLAG immunoblot
T1 construct: mature; also called full length LRRK2
Description: FIG. 2. […] A.) 5 mg of Swiss 3T3 lysate was subjected to immunoprecipitation with control IgG or anti-LRRK2 (S348C) antibody. Immunoprecipitates were resolved on 4-12% Novex SDS-polyacrylamide gel and immunoblotted with antibodies against LRRK2 (S374C), Hsp90 and pan 14-3-3. B.) 5 mg of Swiss 3T3 lysate was subjected to immunoprecipitation with anti-pan 14-3-3 antibodies and immunoprecipitates were resolved on 4-12% Novex SDS-polyacrylamide gels and immunoblotted with antibodies against pan-14-3-3 and LRRK2 (S374C). […] 36 hours post transfection cells were lysed and glutathione-Sepharose affinity purified proteins immunoblotted with anti-GST or anti-FLAG antibodies. D.) Fragments encoding the indicated domains of LRRK2 were transiently expressed in HEK-293 cells and immunoprecipitated with anti-FLAG antibodies. The immunoprecipitates were resolved on 4-12% Novex SDS-polyacrylamide gels and probed with either anti-FLAG antibodies or 14-3-3 overlay with digoxigenin labeled 14-3-3 in a far western assay. […] E.) Endogenous LRRK2 was immunoprecipitated from Swiss 3T3 cells with anti-LRRK2 (S348C) and subsequently treated with λ-phosphatase in the absence or presence of EDTA prior to immunoblot analysis with indicated antibodies or a 14-3-3 overlay assay. F.) As in E, except experiment undertaken with immunoprecipitated FLAG-LRRK2 obtained following transient transfection in HEK-293 cells.
Immunological procedures. Cell lysates (10-30 μg) were resolved by electrophoresis on SDS polyacrylamide gels or Novex 4-12% gradient gels, and electroblotted to nitrocellulose membranes. Membranes were blocked with 5% skimmed milk (w/v) in 50 mM Tris/HCl, pH 7.5, 0.15 M NaCl and 0.1% (v/v) Tween (TBST Buffer). For phospho-antibodies, primary antibody was used at a concentration of 1 μg/ml, diluted in 5% skimmed milk in TBST with the inclusion of 10 μg/ml dephosphorylated-peptide.

T1 sequence (Q5S007 whole entry, canonical isoform): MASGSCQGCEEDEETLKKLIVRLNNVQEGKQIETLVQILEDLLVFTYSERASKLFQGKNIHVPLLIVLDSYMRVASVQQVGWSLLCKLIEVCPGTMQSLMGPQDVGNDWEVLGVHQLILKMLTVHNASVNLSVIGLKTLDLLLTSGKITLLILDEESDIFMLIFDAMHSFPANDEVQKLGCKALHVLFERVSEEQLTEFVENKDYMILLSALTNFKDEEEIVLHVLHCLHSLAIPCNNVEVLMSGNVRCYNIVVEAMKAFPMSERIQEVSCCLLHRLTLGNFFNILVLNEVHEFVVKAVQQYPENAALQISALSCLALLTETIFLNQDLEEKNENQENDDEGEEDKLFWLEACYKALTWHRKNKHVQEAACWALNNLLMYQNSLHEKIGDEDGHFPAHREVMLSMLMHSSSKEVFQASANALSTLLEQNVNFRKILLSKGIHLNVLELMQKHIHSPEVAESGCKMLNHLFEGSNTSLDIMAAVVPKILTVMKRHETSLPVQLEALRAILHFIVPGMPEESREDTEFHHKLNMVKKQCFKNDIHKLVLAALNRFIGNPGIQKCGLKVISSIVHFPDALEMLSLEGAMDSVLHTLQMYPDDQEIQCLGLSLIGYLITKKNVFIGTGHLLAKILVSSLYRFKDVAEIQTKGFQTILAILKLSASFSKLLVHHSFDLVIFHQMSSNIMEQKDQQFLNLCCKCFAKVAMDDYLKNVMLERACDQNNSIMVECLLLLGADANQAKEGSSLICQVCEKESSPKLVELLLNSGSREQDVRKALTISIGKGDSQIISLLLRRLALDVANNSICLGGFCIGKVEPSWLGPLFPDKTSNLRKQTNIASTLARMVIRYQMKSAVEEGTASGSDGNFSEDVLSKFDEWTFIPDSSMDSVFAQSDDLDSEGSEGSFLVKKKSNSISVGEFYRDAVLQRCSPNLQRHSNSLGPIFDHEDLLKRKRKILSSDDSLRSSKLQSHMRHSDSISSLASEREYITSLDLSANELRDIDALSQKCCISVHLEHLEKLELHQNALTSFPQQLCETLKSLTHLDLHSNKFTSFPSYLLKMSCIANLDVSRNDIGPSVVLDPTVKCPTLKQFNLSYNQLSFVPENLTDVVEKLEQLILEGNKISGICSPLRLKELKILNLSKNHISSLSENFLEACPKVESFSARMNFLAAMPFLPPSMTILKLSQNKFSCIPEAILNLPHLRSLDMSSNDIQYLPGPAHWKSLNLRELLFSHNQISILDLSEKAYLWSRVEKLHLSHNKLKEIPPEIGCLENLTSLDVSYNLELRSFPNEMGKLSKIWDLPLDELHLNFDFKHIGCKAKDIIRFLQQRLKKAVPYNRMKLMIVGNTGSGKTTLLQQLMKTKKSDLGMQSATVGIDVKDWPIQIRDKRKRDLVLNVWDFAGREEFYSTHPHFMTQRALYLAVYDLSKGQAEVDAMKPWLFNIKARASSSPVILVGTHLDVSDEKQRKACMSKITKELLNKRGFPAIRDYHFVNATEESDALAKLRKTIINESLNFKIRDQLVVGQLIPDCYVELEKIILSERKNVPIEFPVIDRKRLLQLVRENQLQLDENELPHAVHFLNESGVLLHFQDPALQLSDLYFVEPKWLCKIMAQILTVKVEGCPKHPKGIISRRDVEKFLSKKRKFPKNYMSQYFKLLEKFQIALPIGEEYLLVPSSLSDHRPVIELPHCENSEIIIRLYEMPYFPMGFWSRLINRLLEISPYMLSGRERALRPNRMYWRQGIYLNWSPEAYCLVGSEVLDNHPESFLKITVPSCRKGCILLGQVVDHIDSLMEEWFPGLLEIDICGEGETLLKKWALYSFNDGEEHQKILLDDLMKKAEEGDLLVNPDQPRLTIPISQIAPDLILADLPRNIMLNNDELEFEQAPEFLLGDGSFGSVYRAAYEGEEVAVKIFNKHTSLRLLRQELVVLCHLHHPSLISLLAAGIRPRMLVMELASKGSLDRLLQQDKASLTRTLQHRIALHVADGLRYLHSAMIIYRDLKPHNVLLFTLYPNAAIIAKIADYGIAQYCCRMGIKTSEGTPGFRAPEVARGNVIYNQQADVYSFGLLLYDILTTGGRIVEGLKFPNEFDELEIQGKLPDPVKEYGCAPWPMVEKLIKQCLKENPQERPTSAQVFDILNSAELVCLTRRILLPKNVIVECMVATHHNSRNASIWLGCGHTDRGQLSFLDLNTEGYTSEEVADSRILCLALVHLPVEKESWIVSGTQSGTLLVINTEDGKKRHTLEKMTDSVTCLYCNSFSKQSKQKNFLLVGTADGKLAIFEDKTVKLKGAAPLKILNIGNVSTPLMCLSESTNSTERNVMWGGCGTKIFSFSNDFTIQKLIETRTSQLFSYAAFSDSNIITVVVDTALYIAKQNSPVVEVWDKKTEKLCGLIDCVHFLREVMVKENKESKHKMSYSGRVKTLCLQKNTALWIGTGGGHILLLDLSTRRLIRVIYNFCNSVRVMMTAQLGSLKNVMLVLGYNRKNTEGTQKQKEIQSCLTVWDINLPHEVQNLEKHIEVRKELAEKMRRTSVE
full-length GFP-LRRK2[G2019S] mutant (human), sequence (Q5S007 whole entry G2019S, canonical isoform): as the sequence (Q5S007 whole entry, canonical isoform) above, with G2019S counted along it
wild type full-length GFP-LRRK2 (human), sequence (Q5S007 whole entry, canonical isoform): as the sequence (Q5S007 whole entry, canonical isoform) above

B1: GST tagged human 14-3-3 beta (other)
chain: MTMDKSELVQKAKLAEQAERYDDMAAAMKAVTEQGHELSNEERNLLSVAYKNVVGARRSSWRVISSIEQKTERNEKKQQMGKEYREKIEAELQDICNDVLELLDKYLIPNATQPESKVFYLKMKGDYFRYLSEVASGDNKQTTVSNSQQAYQEAFEISKKEMQPTHPIRLGLALNFSVFYYEILNSPEKACSLAKTAFDEAIAELDTLNEESYKDSTLIMQLLRDNLTLWTSENQGDEGDAGEGEN
notes: One of all seven isoforms of human 14-3-3 expressed from pEBG plasmids; also called GST-14-3-3 beta; not shown: GST tag from the pEBG plasmid
binding result [3]: binds

B2: GST tagged human 14-3-3 sigma (other)
chain: MERASLIQKAKLAEQAERYEDMAAFMKGAVEKGEELSCEERNLLSVAYKNVVGGQRAAWRVLSSIEQKSNEEGSEEKGPEVREYREKVETELQGVCDTVLGLLDSHLIKEAGDAESRVFYLKMKGDYYRYLAEVATGDDKKRIIDSARSAYQEAMDISKKEMPPTNPIRLGLALNFSVFHYEIANSPEEAISLAKTTFDEAMADLHTLSEDSYKDSTLIMQLLRDNLTLWTADNAGEEGGEAPQEPQS
notes: As for GST tagged 14-3-3 beta; also called atypical sigma isoform; not shown: GST tag from the pEBG plasmid
binding result [3]: no binding

B6: GST tagged human 14-3-3 theta (other)
chain: MEKTELIQKAKLAEQAERYDDMATCMKAVTEQGAELSNEERNLLSVAYKNVVGGRRSAWRVISSIEQKTDTSDKKLQLIKDYREKVESELRSICTTVLELLDKYLIANATNPESKVFYLKMKGDYFRYLAEVACGDDRKQTIDNSQGAYQEAFDISKKEMQPTHPIRLGLALNFSVFYYEILNNPELACTLAKTAFDEAIAELDTLNEDSYKDSTLIMQLLRDNLTLWTSDSAGEECDAAEGAEN
notes: As for GST tagged 14-3-3 beta; also called GST-14-3-3 theta; not shown: GST tag from the pEBG plasmid
binding result [3]: binds

B7: GST tagged human 14-3-3 eta (other)
chain: MGDREQLLQRARLAEQAERYDDMASAMKAVTELNEPLSNEDRNLLSVAYKNVVGARRSSWRVISSIEQKTMADGNEKKLEKVKAYREKIEKELETVCNDVLSLLDKFLIKNCNDFQYESKVFYLKMKGDYYRYLAEVASGEKKNSVVEASEAAYKEAFEISKEQMQPTHPIRLGLALNFSVFYYEIQNAPEQACLLAKQAFDDAIAELDTLNEDSYKDSTLIMQLLRDNLTLWTSDQQDEEAGEGN
notes: As for GST tagged 14-3-3 beta; also called GST-14-3-3 eta; not shown: GST tag from the pEBG plasmid
binding result [3]: binds

Results, then the molecule that gave them:

fold enrichment compared to GFP alone [1]: 10 to 30 fold
fold enrichment compared to GFP alone [2]: 10 to 30 fold
Molecule: endogenous 14-3-3 in 293 cells

binding result [3]: binds
B3: GST tagged human 14-3-3 epsilon (other)
chain: MDDREDLVYQAKLAEQAERYDEMVESMKKVAGMDVELTVEERNLLSVAYKNVIGARRASWRIISSIEQKEENKGGEDKLKMIREYRQMVETELKLICCDILDVLDKHLIPAANTGESKVFYYKMKGDYHRYLAEFATGNDRKEAAENSLVAYKAASDIAMTELPPTHPIRLGLALNFSVFYYEILNSPDRACRLAKAAFDDAIAELDTLSEESYKDSTLIMQLLRDNLTLWTSDMQGDGEEQNKEALQDVEDENQ
notes: As for GST tagged 14-3-3 beta; also called GST-14-3-3 epsilon; not shown: GST tag from the pEBG plasmid

binding result [3]: binds
B4: GST tagged human 14-3-3 zeta (other)
chain: MDKNELVQKAKLAEQAERYDDMAACMKSVTEQGAELSNEERNLLSVAYKNVVGARRSSWRVVSSIEQKTEGAEKKQQMAREYREKIETELRDICNDVLSLLEKFLIPNASQAESKVFYLKMKGDYYRYLAEVAAGDDKKGIVDQSQQAYQEAFEISKKEMQPTHPIRLGLALNFSVFYYEILNSPEKACSLAKTAFDEAIAELDTLSEESYKDSTLIMQLLRDNLTLWTSDTQGDEAEAGEGGEN
notes: As for GST tagged 14-3-3 beta; also called GST-14-3-3 zeta; not shown: GST tag from the pEBG plasmid

binding result [3]: binds
B5: GST tagged human 14-3-3 gamma (other)
chain: MVDREQLVQKARLAEQAERYDDMAAAMKNVTELNEPLSNEERNLLSVAYKNVVGARRSSWRVISSIEQKTSADGNEKKIEMVRAYREKIEKELEAVCQDVLSLLDNYLIKNCSETQYESKVFYLKMKGDYYRYLAEVATGEKRATVVESSEKAYSEAHEISKEHMQPTHPIRLGLALNYSVFYYEIQNAPEQACHLAKTAFDDAIAELDTLNEDSYKDSTLIMQLLRDNLTLWTSDQQDDDGGEGNN
notes: As for GST tagged 14-3-3 beta; also called GST-14-3-3 gamma; not shown: GST tag from the pEBG plasmid
